The results in this text go back to patent US20210147536A1 (MAB VENTURE BIOPHARM, published 2021).

T1: human LAG-3 on the cell surface (human, UniProt P18627 23-525)
T1 sequence (looked up): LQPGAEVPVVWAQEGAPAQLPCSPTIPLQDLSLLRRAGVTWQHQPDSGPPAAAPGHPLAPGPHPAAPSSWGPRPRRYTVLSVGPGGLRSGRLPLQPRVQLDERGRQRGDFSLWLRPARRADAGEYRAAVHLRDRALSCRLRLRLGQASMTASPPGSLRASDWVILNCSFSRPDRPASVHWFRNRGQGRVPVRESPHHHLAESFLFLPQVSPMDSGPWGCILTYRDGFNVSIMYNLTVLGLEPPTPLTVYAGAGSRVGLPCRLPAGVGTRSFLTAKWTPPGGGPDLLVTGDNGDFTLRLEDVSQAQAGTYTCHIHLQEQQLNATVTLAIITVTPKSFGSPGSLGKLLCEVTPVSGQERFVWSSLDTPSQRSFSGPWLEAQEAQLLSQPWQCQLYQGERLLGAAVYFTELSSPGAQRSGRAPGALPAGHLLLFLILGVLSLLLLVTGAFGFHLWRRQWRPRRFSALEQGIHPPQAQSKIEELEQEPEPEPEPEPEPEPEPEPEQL

T2: human LAG-3-6*His tag recombinant fusion protein (human, UniProt P18627 23-450, biotin-labelled in panning and in Example 9)
T2 construct: Bought protein; also called hLAG-3-6*his tag recombinant protein; human LAG-3-his tag recombinant fusion protein
T2 sequence: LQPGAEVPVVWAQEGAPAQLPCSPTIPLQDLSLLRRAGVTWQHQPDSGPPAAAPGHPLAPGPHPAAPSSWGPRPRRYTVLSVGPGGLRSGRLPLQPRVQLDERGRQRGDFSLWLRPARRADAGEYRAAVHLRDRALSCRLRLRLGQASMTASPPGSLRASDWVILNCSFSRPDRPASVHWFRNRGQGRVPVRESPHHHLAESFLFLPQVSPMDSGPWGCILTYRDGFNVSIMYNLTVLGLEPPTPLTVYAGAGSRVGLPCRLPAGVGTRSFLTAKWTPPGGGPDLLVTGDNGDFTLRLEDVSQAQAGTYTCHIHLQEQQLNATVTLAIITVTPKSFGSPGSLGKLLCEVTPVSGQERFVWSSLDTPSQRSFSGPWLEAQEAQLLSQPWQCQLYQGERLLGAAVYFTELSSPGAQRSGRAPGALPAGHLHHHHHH

B1: MV705-3-VH-ED + DD-IgG4 (antibody, V domains shown)
VH: EVQLLESGAEVKKPGASVKVSCKASGYTFTSYGISWVRQAPGQGLEWMGWISAYNGNTNYAQKLQGRVTMTTDTSTSTAYMELRSLRSEDTAVYYCARDGWWELLRPDDAFDIWGQGTTVTVSS
VL: QLVLTQSPSVSVSPGQTASITCSGDKLGDKYAYWYQQKPGQAPVLVIYYDSDRPSGIPERFSGSNSGNTATLTISRVEAGDEADYYCQVWDSSSDQVVFGGGTQLTVLG
notes: human IgG4 S228P constant region, MV705-3 lambda light chain; also called 13381; 13381 (ED + DD)
B2: MV705-3-VH-DE + DD-IgG4 (antibody, V domains shown)
VH: B1 VH with E89D, D90E
VL: B1 VL
notes: human IgG4 S228P constant region, MV705-3 lambda light chain; also called 13380; 13380 (DE + DD)
B3: MV705-3-VH-ED + ED-IgG4 (antibody, V domains shown)
VH: B1 VH with D108E
VL: B1 VL
notes: human IgG4 S228P constant region, MV705-3 lambda light chain; also called 13616; 13616 (ED + ED)
B4: MV705-3-VH-DD + ED-IgG4 (antibody, V domains shown)
VH: B1 VH with E89D, D108E
VL: B1 VL
notes: human IgG4 S228P constant region, MV705-3 lambda light chain; also called 13386; 13386 (DD + ED)
B5: MV705-3-VH-DE + ED-IgG4 (antibody, V domains shown)
VH: B1 VH with E89D, D90E, D108E
VL: B1 VL
notes: human IgG4 S228P constant region, MV705-3 lambda light chain; also called 13563; 13563 (DE + ED)
B6: MV705-3-VH-DD + DE-IgG4 (antibody, V domains shown)
VH: B1 VH with E89D, D109E
VL: B1 VL
notes: human IgG4 S228P constant region, MV705-3 lambda light chain; also called 13365; 13365 (DD + DE)
B7: MV705-3-VH-DE + DE-IgG4 (antibody, V domains shown)
VH: B1 VH with E89D, D90E, D109E
VL: B1 VL
notes: human IgG4 S228P constant region, MV705-3 lambda light chain; also called 13565; 13565 (DE + DE)
B8: MV705-3-VH-ED + DE-IgG4 (antibody, V domains shown)
VH: B1 VH with D109E
VL: B1 VL
notes: human IgG4 S228P constant region, MV705-3 lambda light chain; also called 13564; 13564 (ED + DE)

Positions count from the first letter of the chain named. Names and notes keep the numbering of the source.

The target in one assay is T1, human LAG-3 on the cell surface. Nature of the assay: cell-based or functional assay.
Consider B1, for which the “EC50, ability to activate T cells in vitro (LAG3/NFAT Reporter-Jurkat)” value amounted to 0.1 µg/mL.
On the same count and under the same terms, next, B2: 0.05 µg/mL.
Same read-out and setting: next, B3: > 30 µg/mL; B4: > 30 µg/mL; B5: > 30 µg/mL.

Another assay addresses T2, human LAG-3-6*His tag recombinant …. Nature of the assay: ELISA as in Example 4 (antibody coated, human LAG-3-6*His titrated). (In general: In an ELISA, binding on a coated surface is turned into a signal by an enzyme label.)
Turning to B6, the EC50 was determined as 1.29 µg/mL.
As to B7, the EC50 was determined as 3.13 µg/mL.
Same read-out and setting: for B8 the value was 2.43 µg/mL; for B4, 0.15 µg/mL; for B5, 0.21 µg/mL.

The target is the same in another assay. The assay is described as follows: ELISA as in Example 4 (antibody coated, human LAG-3-6*His titrated); N = 2.
With B3, the EC50 was found to be 0.21 µg/mL.

Another assay has the same target. The assay is described as follows: ELISA as in Example 4 (antibody coated, human LAG-3-6*His titrated); N = 3.
With B1, the EC50 worked out at 0.044 µg/mL.
B2: the EC50 is 0.044 µg/mL.

A further assay concerns the target T1, human LAG-3 on the cell surface. The assay is described as follows: flow cytometry on cells expressing the human LAG-3, PE anti-human IgG; N = 1. In general terms: A flow cytometer gives signals particle by particle.
B6: the EC50 was > 10 µg/mL.
B8: the EC50 is > 0.01 µg/mL.

The next assay has the same target. Nature of the assay: flow cytometry on cells expressing the human LAG-3, PE anti-human IgG; N = 2.
On to B7, for which the EC50 is > 0.01 µg/mL.
On the same count and under the same terms, next, B3: 0.0051 µg/mL.

Another assay has the same target. The assay is described as follows: flow cytometry on cells expressing the human LAG-3, PE anti-human IgG; N = 4.
For B1, the EC50 was found to be 0.0022 µg/mL.
Consider B2, for which the response was half-maximal at 0.0018 µg/mL (EC50).
The same measure, in the same setting: next, B4: 0.0059 µg/mL.
On the same count and under the same terms, for B5 the value was 0.0047 µg/mL.

A word on the EC50: it is the concentration giving half of the maximal effect.
